T1: human ASGR-1 (wild type) (human, UniProt P07306 1-291)
T1 construct: also called wt ASGR1; huASGR-1
T1 sequence: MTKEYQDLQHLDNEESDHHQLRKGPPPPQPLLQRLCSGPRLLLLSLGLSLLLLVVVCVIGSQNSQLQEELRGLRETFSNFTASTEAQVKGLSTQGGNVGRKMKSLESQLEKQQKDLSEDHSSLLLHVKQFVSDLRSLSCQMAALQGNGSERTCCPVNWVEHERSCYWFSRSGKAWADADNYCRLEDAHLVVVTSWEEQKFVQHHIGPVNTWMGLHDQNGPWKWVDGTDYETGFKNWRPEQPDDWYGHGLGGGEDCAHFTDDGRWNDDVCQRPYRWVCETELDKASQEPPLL

T2: human ASGR-1 mutant construct H203 (human, UniProt P07306 1-291)
T2 construct: Arg/Glu scanning: non-arginine residues were changed to arginine; Transiently expressed on CHO-S cells
T2 sequence: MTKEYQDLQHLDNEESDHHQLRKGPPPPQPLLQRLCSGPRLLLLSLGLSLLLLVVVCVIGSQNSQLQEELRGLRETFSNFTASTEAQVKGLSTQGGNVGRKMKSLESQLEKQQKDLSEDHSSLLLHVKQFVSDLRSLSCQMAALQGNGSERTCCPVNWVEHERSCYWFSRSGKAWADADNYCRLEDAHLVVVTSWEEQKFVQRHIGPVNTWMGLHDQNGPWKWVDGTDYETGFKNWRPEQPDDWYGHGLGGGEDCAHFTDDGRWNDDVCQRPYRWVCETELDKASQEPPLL


Assays:
human ASGR-1 (wild type) [1] = molecular target: T1, human ASGR-1 (wild type); assay: FACS ratio: 65C12 geomean / this mAb geomean
Outline: (§1)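 CHO-S cells transiently expressing wild-type or point-mutant hASGR-1 were stained with antibody at 5 ug/ml for 1 h at 4 °C. Bound antibody was detected by Fc-specific Alexa 647 secondary plus 7-AAD and read by flow cytometry. Ratio is 65C12 geomean divided by test mAb geomean, normalizing for expression.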

[2] = molecular target: T2, human ASGR-1 mutant construct H203; assay: FACS ratio: 65C12 geomean / this mAb geomean
Outline: as §1

human ASGR-1 (wild type) [3] = molecular target: T1, human ASGR-1 (wild type); assay: flow cytometry, CHO-S:huASGR-1 cells, 11-point titration
Method: CHO—S stable high-expressing cell line were developed for both human ASGR-1 as well as mouse ASGR-1. A typical 384 well plate multiplex flow cytometery-based cell binding method is described as followed: Parental CHO—S cells and CHO—S:huASGR-1 cells were respectively labeled using a CellTrace CFSE Cell Proliferation Kit (ThermoFisher Catalog #C34554) and CellTrace Violet Cell Proliferation Kit (ThermoFisher Catalog#C34557) CHO—S:muASGR-1 were not labeled. 20 ul of cells at 4C were added to duplicate wells of the 384 well plate. The cells were equally mixed from all three cell lines (30K cells/well). Then 20 ul of the ASGR-1 antibodies (either purified from hybridoma supernatants or made recombinantly) were added in an 11-point dose response using a 1:2 fold serial dilution starting at 100 nM. The cells and antibodies were incubated for 30 min at 4C and then spun down and washed twice with FACS buffer containing 1 mM CaCl2. 30 ul of anti-hulgG-APC secondary antibodies were then added at a 1:1000 dilution) for 30 min at 4C and then washed once with the same buffer. 60 ul of PI (1:1000) was added and then the cells were read by a core flow cytometry facility. The cells were gated first for live cells, then for single cells and finally for the cell dyes to separate the mixed cells into the three different cell populations. Histograms of signal vs count representing the binding profile of each antibody at each antibody concentration were automatically analyzed for the median of the binding signal and then a binding graph was made with log 10 antibody concentration in nM on the X axis with […] from the duplicate wells on the Y-axis. The binding curves were fit with a standard four parameter sigmoidal binding curve and EC50's reported for all graphs with full curves.

Row | Expression Normalization to mAb 65C12 (human ASGR-1 (wild type) [1]) | Expression Normalization to mAb 65C12 [2] | EC50 (human ASGR-1 (wild type) [3]) | Binder
1 | 1.23 | 1.75 | 1.4 nM | 7E11 (antibody, V domains shown, mAb) VH: QVQLVESGGGVVQPGRSLRLSCAASGFTFSSFGMHWVRQAPGKGLEWVAIIWHDGSNKYYADSVKGRFTISRDNSNNTLYLQMSSLRAEDTAVYYCARDLSMGGMDVWGQGTTVTVSS VL: DIQMTQSPSSLSASVGDRVTIACRASQNIISYLNWYQQKPGKAPKFLIYTASSLQSGVPSRFSGSGSGTDFTLTISSLQPEDFAIYYCQQTYSTPLTFGGGTKVEIK
2 | 1.38 | 2.04 | 3.8 nM | 5E5 (antibody, V domains shown, mAb) VH: QVQLVESGGGVVQPGRSLRLSCAASGFTFSNYVMHWVRQAPGKGLEWVAVIWYDGSNKYYADSVKGRFTISRDNSKNTLYLQMNSLRAEDTAVYYCTREVYSSGWYDYGMDVWGQGTTVTVSS VL: DIQMTQSPSSLSASVGDRVTITCRASQGIRNDLGWYQQKPGKAPKRLIYAASSLQSGVPSRFSGSGSGTEFTLTISSLQPEDFATYYCLQHYSYPRTFGQGTKVEVK
3 | 1.16 | 1.39 | 0.69 nM | 7G4 (antibody, V domains shown, mAb) VH: QVQLVESGGGVVQPGRSLRLSCAASGFTFNNYVMHWVRQAPGKGLEWVAVIWYDGSNKYYADSVKGRFTISRDNSKNTLYLQMTSLRAEDTAVYYCAREKYSSNWYDYGMDVWGQGTTVTVSS VL: DIQMTQSPSSLSASVGDRVTITCRASQGIRNDLGWYQQRPGKAPKRLIYAASSLQSGVPSRFSGSGSGTEFTLTISSLQPEDSATYYCLHQYSYPRTFGQGTKVEIK
4 | 1.36 | 1.36 | 0.82 nM | 4A2 (antibody, V domains shown, mAb) VH: QVQLVQSGTEVKKPGASVKVSCKASGYTFTNYDINWVRQATGQGLEWMGWMHPNSGNTGYAQKFQGRVTLTRNTSISTAYMELSSLRSEDTAVYYCASSSGWYYFDYWGQGTLVTVSS VL: DIVMTQSPDSLAVSLGERATINCKSSQSILHSSNNNNYLAWFQQKPGQPPKLLLYWASTRESGVPDRFSGSGSGTDFTLTISSLQPEDVAVYYCQQYYNTPVTFGPGTKVGIK
5 | 1.22 | 1.91 | 11 nM | 26C4 (antibody, V domains shown, mAb) VH: QVQLVQSGAEVKKPGASVKVSCKASGYTFTNYDINWVRQASGQGLEWMGWMNPNSGNTGYAQRFQGRVTMTRNTSINTAYMELSSLRSEDTAVYYCASSSGWYYFDYWGQGTLVTVSS VL: not shown
6 | 1.01 | 1.29 | 1.6 nM | 25A4 (antibody, V domains shown, mAb) VH: QVLLVQSGAEVKRPGASVKVSCKASGYTFTNYDINWVRQATGQGLEWMGWMYPNSGNTGYAQKFQGRVTMTRNTSISTAYMELSSLRSEDTAVYYCASSSGWYYFDYWGQGTLVTVSS VL: DIVMTQFPDSLAVSLGERATIKCKSSQSVLYSSHNNNYLAWYQQKPGQPPKLLLYWASTRESGVPDRFSGSGSGTEFTLTISSLEAEDVAVYYCQQYYSTPPTFGQGTKVEIK
7 | 1.37 | 1.95 | 1.9 nM | 29H8 (antibody, V domains shown, mAb) VH: QVQLVQSGAEVQKPGASVKVSCKASGYTFTNYDINWVRQATGQGLEWMGWMNPNSGNTGYAQRFQGRVTMTRNTSISAAYMELSSLRSEDTAVYYCASSSGWYYFDYWGQGTLVTVSS VL: not shown
8 | 1.32 | 1.27 | 1.1 nM | 56E5 (antibody, V domains shown, mAb) VH: QVQLVQSGAEVKKPGASVKVSCQASGYTFTGYHMHWVRQAPGQGLEWMGWINPNNNATNYAQKFQGRVTMTRDTSISTAYMELRRLRSDDTAVYHCARDGTSSFDYWGQGTLVTVSS VL: DIQMTQSPSSVSASVGDRVTITCRASQGIRKWLAWYQQKPGKAPKLLIYAASSLQSGVPSRFSGSGSGTDFTLTISSLQPEDFATYYCQQANSFPFTFGPGTKVDIK

From patent US20190248902A1 (published 2019)
